Laboratory results published in US20180318417A1 (COMPASS THERAPEUTICS, published 2018).

Assays:
[1] = target: T1, Recombinant human CD137 Fc fusion protein (Sino Biological) (human, UniProt Q07011 24-186); experiment: ForteBio Octet BLI; antigen-Fc on Protein A sensor, 100 nM construct
T1 construct: not shown: Fc part of the bought fusion protein
Experimental: (§1) Antigen binding of MIAC constructs were analyzed using ForteBio Octet. […] All antigens were reconstituted in PBS at the final concentration of 0.25 ug/ul. […] Association proceeded by dipping sensors in 100 nM MIAC constructs for 5 minutes and disassociation occurred in blank kinetics buffer for 5 minutes. For CD3 epsilon binding, antigen was immobilized on Ni-NTA sensors; association was performed in 50 nM MIAC constructs. Binding data were analyzed using ForteBio Data Analysis 9.0 software.

[2] = target: T2, Recombinant human PD-1 Fc fusion protein (Sino Biological) (human, UniProt Q15116 25-167); experiment: ForteBio Octet BLI; antigen-Fc on Protein A sensor, construct in solution
T2 construct: not shown: Fc part of the bought fusion protein

[3] = target: T3, Recombinant human Her2 Fc fusion protein (Sino Biological) (human, UniProt P04626 23-652); experiment: as above
T3 construct: not shown: Fc part of the bought fusion protein

[4] = target: T1, Recombinant human CD137 Fc fusion …; experiment: as above
[5] = target: T2, Recombinant human PD-1 Fc fusion …; experiment: ForteBio Octet BLI; antigen-Fc on Protein A sensor, 100 nM construct
Experimental: as §1

T2 sequence (Q15116 25-167 limits assumed): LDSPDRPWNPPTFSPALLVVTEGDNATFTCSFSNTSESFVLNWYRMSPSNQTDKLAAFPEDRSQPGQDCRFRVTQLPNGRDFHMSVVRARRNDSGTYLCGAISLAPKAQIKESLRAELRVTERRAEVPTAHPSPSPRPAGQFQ

Binder | Kd [1] [pM] | binding result [2] | binding result [3] | binding result [4] | Kd [5] [pM]
PID-92 (bispecific Her2/CD137 MIAC; Urelumab IgG1 with Trastuzumab scFv at the heavy chain C-termini) (bispecific antibody, also called α-Her2/α-CD137 MIAC; PID92 [Her2/CD137]) heavy: not shown light: not shown | 230 | no binding (tested: 100 nM) | – | – | –
PID-2 (monospecific anti-PD-1; Pembrolizumab Fab domain, human IgG1 constant domain) (antibody, V domains shown, also called PID2 (PD-1)) VH: QVQLVQSGVEVKKPGASVKVSCKASGYTFTNYYMYWVRQAPGQGLEWMGGINPSNGGTNFNEKFKNRVTLTTDSSTTTAYMELKSLQFDDTAVYYCARRDYRFDMGFDYWGQGTTVTVSS VL: EIVLTQSPATLSLSPGERATLSCRASKGVSTSGYSYLHWYQQKPGQAPRLLIYLASYLESGVPARFSGSGSGTDFTLTISSLEPEDFAVYYCQHSRDLPLTFGGGTKVEIKR | – | – | no binding (tested: 100 nM) | no binding (tested: 100 nM) | –
PID-90 (monospecific anti-CD137; Urelumab Fab domain, human IgG1 constant domain) (antibody, V domains shown, also called PID90 (CD137)) VH: QVQLQQWGAGLLKPSETLSLTCAVYGGSFSGYYWSWIRQSPEKGLEWIGEINHGGYVTYNPSLESRVTISVDTSKNQFSLKLSSVTAADTAVYYCARDYGPGNYDWYFDLWGRGTLVTVSS VL: EIVLTQSPATLSLSPGERATLSCRASQSVSSYLAWYQQKPGQAPRLLIYDASNRATGIPARFSGSGSGTDFTLTISSLEPEDFAVYYCQQRSNWPPALTFGGGTKVEIKR | 700 | no binding (tested: 100 nM) | no binding (tested: 100 nM) | – | –
PID-7 (bispecific Her2/PD-1 MIAC; Pembrolizumab IgG1 with Trastuzumab scFv at the heavy chain C-termini) (bispecific antibody, also called α-Her2/α-PD-1) heavy: not shown light: EIVLTQSPATLSLSPGERATLSCRASKGVSTSGYSYLHWYQQKPGQAPRLLIYLASYLESGVPARFSGSGSGTDFTLTISSLEPEDFAVYYCQHSRDLPLTFGGGTKVEIKRTVAAPSVFIFPPSDEQLKSGTASVVCLLNNFYPREAKVQWKVDNALQSGNSQESVTEQDSKDSTYSLSSTLTLSKADYEKHKVYACEVTHQGLSSPVTKSFNRGEC | – | – | – | no binding (tested: 100 nM) | 120
